The target in assay [1] is T1, recombinant, soluble human ASGR-1 (human, UniProt P07306 62-291).
T1 construct: biotinylated in the binning assay; also called soluble huASGR-1; Soluble ASGR-1 (Amgen)
T1 sequence: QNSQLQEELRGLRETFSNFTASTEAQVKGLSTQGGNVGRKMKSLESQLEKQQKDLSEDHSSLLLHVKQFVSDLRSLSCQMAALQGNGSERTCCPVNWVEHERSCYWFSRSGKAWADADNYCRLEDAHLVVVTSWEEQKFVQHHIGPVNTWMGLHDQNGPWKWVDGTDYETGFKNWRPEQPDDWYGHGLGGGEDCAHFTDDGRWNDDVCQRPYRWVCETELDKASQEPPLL
The experiment in a line: Octet BLI dissociation, pH 5.6 plus calcium. A digest of the protocol:
(§1)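 Antibodies were captured on anti-human Fc biosensors, and soluble ASGR-1 (6 ug/ml) was associated for 2 min in Tris buffer containing 1 mM CaCl2 at pH 7.4, followed by 10 min dissociation under each test condition. The signal at the end of association was set as 100%. Percent ASGR-1 still bound after 1 min of dissociation was compared with the pH 7.4 plus calcium control, and >10% extra dissociation was scored as sensitive.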

For assay [2], the target named is T1, recombinant, soluble human ASGR-1. The experiment in a line: Octet BLI dissociation, pH 7.4 minus calcium. A digest of the protocol: as §1
The target is the same in assay [3]. The experiment in a line: Octet BLI dissociation, pH 5.6 minus calcium. A digest of the protocol:
as §1

16 molecules from US20190248902A1 (published 2019) can be followed below.

B1: 198B9 (antibody, V domains shown)
VH: QVQLVESGGGVVQPGRSLRLSCAASGFTFSNYGMHWVRQAPGKGLEWVAIIWFDGSNKYYVDSVKGRFTISRDNSKNTLFLQMSSLRAEDTAVYYCAREWLQFRYYYGMDVWGQGTTVTVSS
VL: DIQMTQSPSSLSASVGDRVTITCRASQGIRKDLGWYQQKPGKAPKRLIYAASSLQSGVPSRFSGSGSGTEFTLTISSLQPEDFATYVCLQHYRYPFTFGPGTKVDFK
notes: hybridoma mAb
Turning to B1, the “% Change Compared to pH 7.4 + Calcium” value in assay [1] worked out at 2%; in assay [2], 3%; in assay [3] it was 11%.

B2: 193E7 (antibody, V domains shown)
VH: QVQLQQWGAGLLKPSETLSLTCAVYGGSFSGYFWTWIRQPPGKGLEWIGEINHSGSTNYNPSLKSRVTISVDTSKNQFSLKLSSVTAADTAVYYCARDYGADYWGQGTLVAVSA
VL: DIQMTQSPSSLSASVGDRVTITCRASQGIRNDLGWYQQKPGKAPKRLIYSASSLQRGVPSRFSGSGSGTEFTLTISSLQPEDFATYYCLQHKRYPLTFGGGTKVEIK
notes: hybridoma mAb
As to B2, the “% Change Compared to pH 7.4 + Calcium” value is -9% in assay [1], -9% in assay [2] and -4% in assay [3].

B3: 199A7 (antibody, V domains shown)
VH: QVQLVESGGGVVQPGRSLRLSCAASGFTFSNYGMHWVRQAPGKGLEWVAIIWFDGSNKYYADSVKGRFTISRDNSKNTLFLQMSSLRAEDTAVYYCAREWLQFRYYYGMDVWGQGTTVTVSS
VL: DIQMTQSPSSLSASVGDRVTITCRASQGIRKDLGWYQQKPGKAPKRLIYAASSLQSGVPSRFSGSGSGTEFTLTISSLQPEDFATYVCLQHYRYPFTFGPGTKVDFK
notes: hybridoma mAb
B3: the results for the “% Change Compared to pH 7.4 + Calcium” value in assay [1], in assay [2] and in assay [3] were 1%, 1% and 10%, respectively.

B4: 199E3 (antibody, V domains shown)
VH: QVQLQQWGAGLLKPSETLSLTCAVYGGSFSGYFWTWIRQPPGKGLEWIGEINHSGSTNYNPSLKSRVTISVDTSKNQFSLKLSSVTAADTAVYYCARDYGADYWGQGTLVAVSA
VL: DIQMTQSPSSLSASVGDRVTITCRASQGIRNDLGWYQQKPGKAPKRLISSASSLQRGVPSRFSGSGSGTEFTLTISSLQPEDFATYYCLQHKRYPLTFGGGTKVEIK
notes: hybridoma mAb
Consider B4, for which the “% Change Compared to pH 7.4 + Calcium” value in assay [1] is -4%; in assay [2], -5%; in assay [3], -4%.

B5: 149A1 (antibody, V domains shown)
VH: EVQLVESGGGLVQPGGSLRLSCAASGFTFSSYNMNWVRQAPGKGLEWVSYISRSSNTKHYADSVKGRFTISRDNAKNSLYLQMNSLRDEDTAVYYCARDRSGSYGYFYYYGLDVWGQGTTVTVSS
VL: not shown
notes: hybridoma mAb
Regarding B5, the results for the “% Change Compared to pH 7.4 + Calcium” value in assay [1], in assay [2] and in assay [3] were -7%, 2% and 9%, respectively.

B6: 146A8 (antibody, V domains shown)
VH: EVKLVESGGGLVQPGESLRLSCVASGFTFSNYNMNWVRQAPGKGLEWVSYISRSSNTKYYADSVRGRFTISRDNAKNSLYLQMNSLRDEDTAVYYCARDRSGSYGYFYYYGLDVWGQGTTVTVSS
VL: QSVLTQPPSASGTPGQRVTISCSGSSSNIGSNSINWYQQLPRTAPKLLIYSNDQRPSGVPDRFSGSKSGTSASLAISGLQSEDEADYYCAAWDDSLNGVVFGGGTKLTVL
notes: hybridoma mAb
Regarding B6, the “% Change Compared to pH 7.4 + Calcium” value was -9% in assay [1], 2% in assay [2] and 25% in assay [3].

B7: 146B6 (antibody, V domains shown)
VH: EVQLVESGGGLVQPGGSLRLSCAASGFTFSSYNMNWVRQAPGKGLEWVSYISRSSNTKHYADSVKGRFTISRDNAKNSLYLQMDSLRDEDTAVYYCARDRSGSYGYFYYYGLDVWGQGTTVTVSS
VL: not shown
notes: hybridoma mAb
For B7, the results for the “% Change Compared to pH 7.4 + Calcium” value in assay [1], in assay [2] and in assay [3] were -5%, 2% and 13%, respectively.

B8: 172B12 (antibody, V domains shown)
VH: QVQLVQSGAEVKKPGASVTVSCKASGYTFRSYYMYWVRQAPGQGLEWVGTINPSGGSTDYAQKFQGRVTMTRDTSTSTLYMELNSLRSEDTAVYYCASGWELNYWGQGTLVTVSS
VL: SSELTQDPAVSVALGQTVRITCQGDSLRNYYASWYQQKPGQAPILVIYTKNSRPSGIPDRFSGSTSGNTASLTITGAQAEDEADYYCNSRDSSGNHVVFGGGTKLTVL
notes: hybridoma mAb
Turning to B8, the “% Change Compared to pH 7.4 + Calcium” value in assay [1] was -27%; in assay [2] it was -14%; in assay [3] it was -13%.

B9: 172C3 (antibody, V domains shown)
VH: QVQLVQSGAEVKKPGASVKVSCKASGYTFRSYYMYWVRQAPGQGLEWVGTINPSGGSTNYAQKFQGRVTMTRDTSTSTLYMELNSLRSEDTAVYYCASGWELNYWGQGTLVTVSS
VL: SSELTQDPAVSVALGQTVRITCQGDSLRNYYVSWYQQKPGQAPILVIYTKNSRPSGIPDRFSGSTSGNTASLTITGTQAEDEADYYCNSRDSSGNHVVFGGGTKLTVL
notes: hybridoma mAb
Regarding B9, the results for the “% Change Compared to pH 7.4 + Calcium” value in assay [1], in assay [2] and in assay [3] were -26%, -9% and 0%, respectively.

B10: 75G3 (antibody, V domains shown)
VH: QVQLQQWGAGLLKPSETLSLTCAVYGGSLSGSYWSWIRQPPGKGLEWIGEINLSGSTNYNPSLKSRVTISVDTSKSQFSLTLRSVTAADTAVYYCARDYGGLDYWGQGTLVTVSS
VL: EIVLTQSPGTLSLSPGERATLSCRARQNVDSSYLAWYQQKPGQAPRLLIYGASSRATGIPDRFSGSGSGTDFTLTISRLEPEDFAVFYCQQYERSPWTFGQGTKVEIK
notes: hybridoma mAb
With B10, the “% Change Compared to pH 7.4 + Calcium” value is -1% in assay [1], -1% in assay [2] and 2% in assay [3].

B11: 74H7 (antibody, V domains shown)
VH: QVQLQQWGAGLLKPSEPLSLTCAVYGGSFSGPYWSWIRQPPGKGLEWIGEINHSGSTNYNPSLKSRVTISVDTSKNQFSLKLTSVTAADTAVYYCARDYGGLDVWGQGTTVTVSS
VL: ELVLTQSPGTLSLSPGERATLSCRASQNIYSSYLAWYQQKPGQAPRLLIYGASSRATGIPDRFSGSGSGTDFTLTISRLEPEDFAVYCCQQYESSPWTFGQGTKVEIK
notes: hybridoma mAb
For B11, the figures for the “% Change Compared to pH 7.4 + Calcium” value in assay [1], in assay [2] and in assay [3] were -2%, 1% and 1%, respectively.

B12: 74B2 (antibody, V domains shown)
VH: QVQLQQWGAGLLKPSEPLSLTCAVYGGSFSGPYWSWIRQPPGKGLEWIGEINHSGSTNYNPSLTSRVTISVDTSKNQFSLKLTSVTAADSAVYYCARDYGGLDVWGQGTTVTVSS
VL: ELVLTQSPGTLSLSPGERATLSCRASQNIYSSYLAWYQQKPGQAPRLLIYGASSRATGIPDRFSGSGSGTDFTLTISRLEPEDFAVYCCQQYESSPWTFGQGTKVEIK
notes: hybridoma mAb
On to B12, for which the “% Change Compared to pH 7.4 + Calcium” value in assay [1] was -9%; in assay [2] it was 8%; in assay [3], -5%.

B13: 85F7 (antibody, V domains shown)
VH: QVQLQQWGAGLLKPSEPLSLTCAVYGGSFSGPYWSWIRQPPGKGLEWIGEINHSGSTNYNPSLKSRVTISVDTSKNQFSLKLTSVTAADTAVYYCARDYGGLDVWGQGTTVTVSS
VL: EPVLTQSPGTLSLSPGERATLSCRASQNIYSNYLAWYQQKPGQAPRLLIYGASSRATGIPDRFSGSGSGTDFTLTISRLEPEDFAVYCCQQYESSPWTFGQGTKVEIK
notes: hybridoma mAb
Turning to B13, the “% Change Compared to pH 7.4 + Calcium” value in assay [1] was -2%; in assay [2], 2%; in assay [3] it was 2%.

B14: 226F9 (antibody, V domains shown)
VH: QVQLVQSGAEVKKPGASVKVSCKASGYTFTGYYIHWVRQAPGQGLEWMGWINPYSGDTKYAQKFQGRVTMTRATSISTAYMELSRLRFDDTAVFYCARDWGGYSSYYYGMDVWGQGTTVTVSS
VL: DIVMTQTPLSLSVTPGQPASISCKSSQSLLHSDGKTFLYWYLQKPGQPPQLLIYEISNRFSGVPDRFSGSGSGTDFTLKISRVEAEDVGIYYCMQSTQLPRTFGQGTKVEIK
notes: hybridoma mAb
In the case of B14, the “% Change Compared to pH 7.4 + Calcium” value in assay [1] came to 51%; in assay [2], 100%; in assay [3] it was 77%.

B15: 224G1 (antibody, V domains shown)
VH: QVQLVQSGAEVKKPGASVKVSCKASGYTFTGYYIHWVRQAPGQGLEWMGWINPYSGDTNYAQKFQGRVTMTRDTSISTAYMELSRLRFDDTAVFYCARDWGGYSSYYYGMDVWGQGTTVTVSS
VL: DIVMTQTPLSLSVTPGQPASISCKSGQSLLHSDGKTFLSWYLQKPGQPPQLLIYEISNRFSGVPDRFSGSGSGTDFTLKISRVEAEDVGIFYCMQSTQLPRTFGQGTKVEIK
notes: hybridoma mAb
Consider B15, for which the “% Change Compared to pH 7.4 + Calcium” value in assay [1] is 41%; in assay [2], 77%; in assay [3], 65%.

B16: 218G4 (antibody, V domains shown)
VH: QVQLVESGGGVVQPGRSLRLSCAASGFTFSSYGLHWVRQAPGKGLEWVAVIWYDGSNKYYADSVKGRFTISRDNSKNTLYLQMNSLRVEDTAVYYCANWYYYYYGMDVWGQGTTVTVSS
VL: QSVLTQPPSVSAAPGQKVTISCSGSSSNIGNNYVSWYQQLPGTAPKLLLYDSNKRPSGIPARFSGSKSGTSATLGITGLQTGDEADYYCGTWDSSLNTVVFGGGTKLTVL
notes: hybridoma mAb
Regarding B16, the figures for the “% Change Compared to pH 7.4 + Calcium” value in assay [1], in assay [2] and in assay [3] were -4%, 1% and 0%, respectively.
